Results taken from the DeepSol protein solubility set.

experiment: soluble on expression in E. coli; label from the status in PepcDB or PDB records

Soluble on expression in E. coli, not soluble:
MGSDKIHHHHHHMIPPVPQKGRGTAHNPHNRFAPGHSVAEDDGWYQEVPQTQGTEVRIETAKSVISRNTSPDLPFDRSINPYRGCEHGCIYCYARPSHAYWDLSPGLDFETKLIAKTNAAEVLAQQLSKPGYVCAPINLGSNTDPYQPIEREQLLTRRLLEVLLRFRHPVTIVTKGSLVLRDLDLLAEMARQRLARVMISLTTLDDGLKRVLEPRAASPGARLRAIRVLREAGVPVGVLCSPMIPMINDSELERLLEAAKEAGAQSAAYMMLRLPLEVAPLFEQWLQDHYPQRAAHVLSLIRQSRGGELYDSRFGVRMRGEGVFAELLAQRFAKAMKRLDFEGREAQELDCSAFCPPGGQMALF
MGSDKIHHHHHHMIQITPFLDSKRKTPLYVQLYQYIKEGIESGQLKSDTFLPSIRELALHLRVSKNTVEGAYQQLIAEGYVESIPRVGLKILELEATFLCDKGGKQLQNVTMGEIQREHKSIEFDFVYGEIDTAHLPLKVWKRHVQEVLKGASEELLMYGDPFGDWHLRQELSHYLLQSRGVSCRPEQVVITAGTQHAVSLLCQLLSLHGSTVAFEDPGYNGVRSVFINQGCRIAPIPIEADGLSLSRLHESHANIVYVTPSHQLPCGMILPVHKRSLLLEWAYEHEGYIVEDDYDSEFRYQGQPIPALKALDQNEKVIYLGTFSKSFLPSIRVSYMVLPGELVPLYQQKLANYNQAASQLIQRALYTFIKDGDFQRHIRRMKKVYQSKHHTLLKSVKTYLGDRVTVIGEKSGLHVLLNVPGREDHELIEKAMACGVKVYSTKTFWYNPKNQCSSFIMLGFGKLSEEAIKKGIRRLQQAWF
MGSDKIHHHHHHMIQLAFTKTEISADTAVKQGAALRQMNELLERLSTAPKYHTLTKKDRAQLSREGYAADLVDNLVLITQRKEESTVTDNDNLVVGFTYAAFDPALYANETLKNHFKQMSQGCCCFCESFLMPTASGHISHYRPVQQLDLEGVEHTKPNSECSPYFSEAYQQENLVYVCSGCDVTHKAGRFPIAGERFPHVALSTENALLVNPYQENPRDFIRFNLCNGHAYPFDQACAFYADTQKLTEQDVEALLWKTPSAIPNQVDEAGALLTDSGVEQAFTFWLKSEASQRQSSRGAVTIVTLGLNRSDLVLARLMTLKQYHNDFITHKAALAQPLMPEDIATIAYRSLALDAFATWQSIANGTGSNLANNEGTNKGTNKGTNIGTNIGASEDTNVANSLPLMANTVLKLREQANNTVENPELDILLPSWFRCCLSYLVLESELQQTGKRRLVFLCNQDRLYGETDTEKCIFLSIKWQRDLHKVIKVRSKRNIWEASFSELANSRPHELINLFANNDVWVEGNFQPLA
MGSDKIHHHHHHMIREIRITSFEGLISEMESLGKELWFRGVTNKNYSLIPGSVRFDLNGWKEVSAVLDFMASYQNHHDYIESNWELYSLMQHYGFPTRLLDWSTSVIVALYFALDGDADVDDAGSAIDRVVWGMTTGMLNNLNFLNRRVIPTAIGKATTGEKYLPSPLRKKEGDDFEFEKNPLAVKMPFTNKRVSAQKGCFTIHGSNPKGIEEIMEENGLGSELIKFVFDEEAAMAIRKTLYKLDINEDDIYQDLNSLSKRIVLVNPNWTLLVENFQILQVTDHH
MGSDKIHHHHHHMIRKNHKPAFCDENPIDCHFDVKSYPAGTTVHNNDTNIIYLIFCMKGHARITSTFFHDEILCAGEVMFVPHGSEYSGVALSDVTLLVHKFNNTVCRAENCILSYLYSHKNIDSKIYCCQRRT
MGSDKIHHHHHHMISAEQLVFTYHDQKNPACQISTCQIASGQFIVLCGPSGSGKSTFLKLLNGIIPDYYAGKYEGRLDVADCQAGRDSVETFSRSVASVFQNPASQFFYREVQHELVFPCENQGLDAKVIMKRLWTLAEDFAFAELLNKDMFGLSGGQKQRVAIATAIMQGTNIMLFDEPTANLDSAGIAAVKAYLTQLKAAGKTIIVAEHRLHYLMDLADNFFYFKNGRLTDKLTTQNLLALTDEQRQDMGLRRLDLSDLKPVLAGKIESQHYRPDDSLCIEHLTVRAGSKILRCIEQLSFAVGSISGITGSNGLGKSQLVYYIAGILDDKKATIKFQGIPLSAKQRLSKTSIVLQEVSLQLFAESVSKEVNLGHERHPRTTEVIERLSLTTLLERHPASLSGGEQQRVMIAASLLADKDILIFDEPSSGLDLLQMKALANLLMQLKTQHKVVILISHDEELLSSVCDTIYQMLP
MGSDKIHHHHHHMISSSTVHAFYFSAKYSSFSRAAEILETTQPNISGQIIKLEKDLDTILFIRKQGRVSLSKEGEKLYLVAEKIVNSYKEFDSVVEYFFEEEPIVIVTQPRLYTKYVAPYLTDDLINNNLFHIKTGELTAIKSWLDKEDADIVITEGLFDSHSRYINEGVIDVLKFSWAKKVNEQFDSPCPTLVHSKVWDHWHDLSSALNRNKEFKRKLIIDTPDFAERLIESGVGIGLLPNVMISNNANLEVCHGPTRNNVLGPICLYSKKYSQHKNLRSLVNMFKKESSDS
MGSDKIHHHHHHMITEKVLSYKSPLYGRRTGSLKLRPMNFFTLREFFPSCSWEELVEIYGMTDGIPFYIIQVKPPFWELLEEELKNPISFFKDEVDFLLRYEFSEVTTYKRILEAIALGKTTLKEIKDFTGLRNSDITPYLRNLIEADLIVREVPITEKKTSKKGRYYVLDNFLAFWFRFIYPNLSRIEEGIFNVDEIKGEYPRYLGWVFEKIARQFLIELNKINKLPFKFEKIGRWWYKEEEIDIVALNEREKKGLLVEVKWKTLKEREAREILEVLNKKSKLLGLEGWEKYYGLIAREIKRKEPLIEDGYLVWDLEDFEEIVKQKSREGL
MGSDKIHHHHHHMITSKDNLTLIFVHACGVGNWMWYKQKDYFSNFSCMFIELPEHGDNYNIQPFSVKSAIKMIDKTVRSASGEVVLIGHEMGARLILNYLAEYTNDKVKKIVLSSTMIKTVKEGLFHKILPAKIIEKEFEKKNKNLQNIDFIKKTLDYYGVEEEYKDYYLNDMKRYKPRQLIKIIQEGLLKKLPLNLFIDNDIPALILVGEKETNANRLSAKLLSEYFSNSELIIVDNSTDNHIRTNSMVFNDRVKNFILT
MGSDKIHHHHHHMITYQEQWQKMQMALAIRRIPQAMLFSGSLHCGLIEFTNQVIKLLLCKIKQNEPCLTCMDCQMIERFEHPDVEWIKPERSGGIIKIDQIRGLQSTAFLTPQRTNHKLIIIESAESMNIAASNALLKILEEPAQHTIFILLAQQIGNIPPTVLSRCQITQFAVFDELPCNNLLALGEYYTQELNSTMVFKHSESILEGLIAIIERREHPCTLAAQWIQHELSAFLWFLYLIYSQLQYMHLFRVAYSGTLTKQLNKLSSLLNPVMIFAQVDKINTLLRKLSHNMNINHTLVLEDLLFSLVVDY
MGSDKIHHHHHHMIVLIGGEKGGSGKSCLAQNIAVFLTTECGASVIMVDCDPQRTTSDWIQARNNNPKLASINCVQLYGKIRNDLLSLEQHYDFVIVDCGGQDNLALRATMSVASHILMPLRPKRRDLKTVSHMDDIVATCKMINPKLHASFVITQCPNLPNQANRILEAKEICKTYDINVLDSITYSRNIYDDSEESGLSVLEIEPKGKAAAEIRAIACEMFQVDCAASLTALLKPSTSIAGHHSQINQNQSNHLRGQYGTQRPQEKRYAI
MGSDKIHHHHHHMIYFETERLICRAFERADLQAFTAYRADPEVARYQSWQDYQYQDALALFENLQQTPFGANGTWMQLALVCRQTQALVGDLALHFIDAQQVEIGFTLASEHQGKGLAREALQGLLVYLFERLGKHRVSAITDVKNRAAWGLLERLGFRREAHYRDNIFFKGSWGSEYGYGLLAREWRQAQVGEPLQEFRLIKRVAPLNDFLRLRQITGLTPRSREAAELGLPLSLFGVHLLAGDRVLAMGRVVGDGALNFELVDIAVDPEYQGRGLGSAIMSAIMAYLDEMAPKGAYITLMADVPALYLKFGFEYSRPASEGMYKLQA
MGSDKIHHHHHHMIYIGLPQWSHPKWARLGITSLEEYARHFNCVEGNTTLYALPKAEIVDRWYAQTTDDFRFCFKFPATISHQAALRHCDDLVQAFFTRLAPLETRIGQYWLQLPAAFGPRDLPALWQFLDALPATFTYGVEVRHPCFFDKGEDEQRLNRGLHARGVNRVILDSRPVHAAHPHSEAVRDAQRKKPKVPVHAVVTASHPMVRFIGSDNMAQNREFFAAWLQKLPQWRQTTTPFLFLHTPDIAQAPELVNTLWHDLRSVLPEIGTAPSIPQQSSLF
MGSDKIHHHHHHMKADRLLEIVALLQNHEKLTTHQLVDHLHVSSRTILRDMDTLSALGIPIVSERGRAGGWKLMDHFRSQLSGMSMTELKALFILPSDKVLKDLGIPTKGRDIRLNMLSSLQGNRKHAVRPYLEKVYIDTGTWKPSKERMEEFNVVQQAVFEEKKLYIVYENAKGEQRERLISPLGLVAKGSAWYVVATVETGDIRNFKLSRIKDSKLVREPIVKPETFSLATYWNESKEQFVQTLPSYEATVLAHDSIIHRLTFTGKFVENIQVGHRDDEWVTVNLCFHDEQEITEYVLGFGGRMKLVTPKHLIGRIVQQASAVIQQYASDKEPTNETKEGL
MGSDKIHHHHHHMKCLLCGQTMKTVLTFSSLLLLRNDDSCLCSDCDSTFERIGEENCPNCMKTELSTKCQDCQLWCKEGVEVSHRAIFTYNQAMKDFFSRYKFDGDFLLRKVFASFLSEELKKYKEYQFVVIPLSPDRYANRGFNQVEGLVEAAGFEYLDLLEKREERASSSKNRSERLGTELPFFIKSGVTIPKKILLIDDIYTTGATINRVKKLLEEAGAKDVKTFSLVR
MGSDKIHHHHHHMKDDVSAPSRYRPSIFAVPFQRHGDGTAVELLSPSEQDALIAISRLVTVRRHTVLYPEGGDARFAYNIVSGVAETYQLLPNGDKRITAFLFPRDLMGLSENGAYVATAQSLTPLVAYRIPVEALAEILERDPRLDIGLLCKLCHELRRSQHHTITVSKNEAPARLASFLVWIQHAYPEEGRAEGEVMLPMSRHDIADYLGLSVESVSRGLHVLEAQDAVRRKGPRLVTVLDPAKLRRLAGQD
MGSDKIHHHHHHMKEQKLSNRFCPEGMTVEEWQVGLRREFAEQNPFDVEHLDENRIWGDYLVANGRNRYRVAFRGVRSERNYCSCLDFRTNGLGTCKHIEAVTLFLQDQVPGYPWGEFDYTPEYSSIYVSYKGGRSIKMRVGREETARFEALRARFFDESGTLPPENYSFLPQICDEAKDIAASFRCYEDVFDLTQEHCRRMEWQDYLRETNPDKRVDNEYTADMPEEMRRHVYDLAYEGHGVMVGLPSDVIVREVVALADVYLRDQPGATGYVIINDPQRFILWRNAFANPALRRLPIEVMHASAFVKKVANNVPPCTFMFVEQAARLKEWRDPVSVAIKRMQIDHLYMNLETIEDLTPVQFSSVVQHIDPFILGPFYRFIRDYRPIFPLRNDGSNLPDDVRDFMFLYTSDSIREMNEMLPPIRTAEILLHGTDAEEEIDKLLRHLNRVLSNDTLREVFLKRISMIVGAS
MGSDKIHHHHHHMKEQYKIIVLSDELSKEKIQNTLDKNKCKTIVHLVDVSAIVQIENSFQYIVIWRMDAEKITNELINRGVQSTKIINLTKYMYEWRNKLISIYQINPDLMSLYISMKKAKGDPTYELFATGLSYPHCGISTELLSKKSIKLTLPSQDLYYDYLIASQLLSNNHSFQYCLIGIAYFSFYFDMSLSSESYRIHKVYYPLFQDGHHTVVHSHLPTDGFSHLDTPKPLFSIFNMHFEYILLDELKNESLILPWIHAEWNTTPPHIPFEEHGKIRAASHAKLSYPHTLVENKTIFKKYLELLLKHDIKPLIVVFPVTSHYFNCSSKKLKEDFYNVIKDFQSQYSFQIIDLFDSPLFCDDDFYDSDHMNKKGANKMSVLLNMFIQERKV
